One block for each substance: values may come before it.
What was measured:
[1] = biological target: GST-GM130-S25D (a.a. 1-85) (human); assay: pull-down; competition: p115-CTD with GST-GM130-WT or GST-GM130-S25D and increasing concentrations of Importin-α FL (up to 40 μM); GST beads, SDS-PAGE, Coomassie blue, band intensities normalised by GST-GM130
[2] = biological target: GST-GM130-WT (a.a. 1-85) (human); assay: as above
[3] = biological target: GST-GM130-S25D (a.a. 1-85) (human); assay: pull-down; GST-GM130 (or GST-IBB) and the recombinant partner at 1:1 molar ratio on glutathione sepharose beads, wash with 150 mM NaCl, elution with 50 mM reduced glutathione, SDS-PAGE, Coomassie blue
[4] = biological target: GM130-NLS phospho-S25 (synthetic peptide with a phosphate moiety on Ser-25 of GM130, a.a. 13-40) (human); assay: ITC; MicroCal iTC200, 25 °C, 20 mM HEPES pH 7.4, 1 mM DTT, with either 50 or 200 mM NaCl (which one is shown only in the figures); one-sites binding model
[5] = biological target: GST-GM130-S25D (a.a. 1-85) (human); assay: pull-down; 5 µM GST-GM130 with HEK293T cell lysate (RIPA buffer) and glutathione sepharose beads, washes with 150 mM NaCl, Western blot for Importin-α and Importin-β
[6] = biological target: GM130-NLS WT peptide (human); assay: ITC; MicroCal iTC200, 25 °C, 20 mM HEPES pH 7.4, 1 mM DTT, with either 50 or 200 mM NaCl (which one is shown only in the figures); one-sites binding model

Importin-β, recombinant, non-tagged, sequence (Q14974 whole entry): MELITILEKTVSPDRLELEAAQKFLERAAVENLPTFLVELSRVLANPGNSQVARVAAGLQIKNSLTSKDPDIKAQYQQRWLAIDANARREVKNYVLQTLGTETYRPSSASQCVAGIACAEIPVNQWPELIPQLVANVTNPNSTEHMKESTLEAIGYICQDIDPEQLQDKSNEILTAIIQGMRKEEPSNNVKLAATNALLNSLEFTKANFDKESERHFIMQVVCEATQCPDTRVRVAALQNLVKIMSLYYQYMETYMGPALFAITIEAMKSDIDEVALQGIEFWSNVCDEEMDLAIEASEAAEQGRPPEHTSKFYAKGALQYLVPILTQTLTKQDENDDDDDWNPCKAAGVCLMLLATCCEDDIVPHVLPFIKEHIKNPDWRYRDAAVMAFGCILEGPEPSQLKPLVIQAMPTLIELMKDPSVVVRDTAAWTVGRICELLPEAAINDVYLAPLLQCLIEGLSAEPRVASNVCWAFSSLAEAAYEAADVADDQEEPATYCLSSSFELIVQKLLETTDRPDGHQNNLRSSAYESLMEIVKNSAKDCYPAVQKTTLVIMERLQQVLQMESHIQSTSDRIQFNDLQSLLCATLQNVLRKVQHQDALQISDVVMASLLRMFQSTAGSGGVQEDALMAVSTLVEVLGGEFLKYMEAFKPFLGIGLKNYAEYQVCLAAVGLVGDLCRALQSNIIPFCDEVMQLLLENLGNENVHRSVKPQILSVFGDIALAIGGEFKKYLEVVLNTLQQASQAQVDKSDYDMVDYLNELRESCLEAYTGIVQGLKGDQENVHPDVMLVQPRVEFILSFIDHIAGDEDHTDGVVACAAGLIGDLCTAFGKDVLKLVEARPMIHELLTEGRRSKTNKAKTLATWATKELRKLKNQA

- fold Importin-α FL pulldown against wild-type GM130 (40 μM Importin-α FL) [1]: 2 fold
- percent p115-CTD remaining on GM130 with 40 μM Importin-α FL [1]: 20%
- percent p115-CTD remaining on GM130 with 40 μM Importin-α FL [2]: 38%
- percent of Importin-α FL pulled down relative to Importin-α(ΔIBB) [3]: 50%
- fold lower dissociation constant than GM130-NLS WT [4]: 3.3 fold
Substance: Importin-α FL (full-length Importin-α), recombinant (from UniProt P52292 1-529) (natural protein)

- Kd [4]: 126 nM
Substance: Importin-α(ΔIBB) (Importin-α lacking the IBB domain, a.a. 70-524) (from UniProt P52293 70-524) (domain or fragment)

- fold Importin-α pulldown against wild-type GST-GM130 [5]: 1.3 fold
Substance: Importin-α, endogenous in HEK293T cells (from UniProt P52292 1-529) (natural protein)

- fold lower binding constant than the wild-type GM130 peptide [4]: > 1000 fold
- Kd [6]: 1200 nM
Substance: Importin-β, recombinant, non-tagged (from UniProt Q14974 1-876) (natural protein)
